Source: article PMC7203112, “Structural basis for the complex DNA binding behavior of the plant stem cell regulator WUSCHEL”

Key:
YFP-WUS-HD = target: T1, YFP-WUS-HD (Arabidopsis thaliana, UniProt Q9SB92 34-103); assay: MST; MST: 20 mM Tris-HCl pH 8.0, 75 mM NaCl, 10 mM MgCl2, 0.05% Tween-20, 20 C, 50 nM YFP-WUS; ITC: same without Tween, 20 C; EMSA: 10 mM Tris-HCl pH 8.0, 75 mM NaCl, 50 ug/ml poly(dI-dC), 1 mM EDTA, 1 mM DTT, 5% glycerol; conditions: protein: recombinant; tags: N-terminal His6-YFP, C-terminal StrepII; blunt
T1 sequence: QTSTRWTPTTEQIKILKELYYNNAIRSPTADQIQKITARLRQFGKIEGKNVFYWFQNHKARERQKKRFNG

MBP-WUS-FL = target: T2, MBP-WUS-FL (Arabidopsis thaliana, UniProt Q9SB92 1-292); assay: EMSA; MST: 20 mM Tris-HCl pH 8.0, 75 mM NaCl, 10 mM MgCl2, 0.05% Tween-20, 20 C, 50 nM YFP-WUS; ITC: same without Tween, 20 C; EMSA: 10 mM Tris-HCl pH 8.0, 75 mM NaCl, 50 ug/ml poly(dI-dC), 1 mM EDTA, 1 mM DTT, 5% glycerol; conditions: protein: recombinant; tags: N-terminal His6-MBP; chain copies: 2; label: Cy5; blunt
T2 sequence: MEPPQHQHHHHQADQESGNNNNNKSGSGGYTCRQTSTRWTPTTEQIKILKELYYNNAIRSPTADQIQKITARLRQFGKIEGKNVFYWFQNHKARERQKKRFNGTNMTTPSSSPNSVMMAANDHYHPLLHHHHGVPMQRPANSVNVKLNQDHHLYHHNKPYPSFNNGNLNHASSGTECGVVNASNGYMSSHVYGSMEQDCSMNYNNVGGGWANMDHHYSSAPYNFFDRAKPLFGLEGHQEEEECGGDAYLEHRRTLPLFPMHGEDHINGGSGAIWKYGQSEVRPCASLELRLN

YFP-WUS-HD S36R = target: T3, YFP-WUS-HD S36R (Arabidopsis thaliana, UniProt Q9SB92 34-103, S36R); assay: MST; MST: 20 mM Tris-HCl pH 8.0, 75 mM NaCl, 10 mM MgCl2, 0.05% Tween-20, 20 C, 50 nM YFP-WUS; ITC: same without Tween, 20 C; EMSA: 10 mM Tris-HCl pH 8.0, 75 mM NaCl, 50 ug/ml poly(dI-dC), 1 mM EDTA, 1 mM DTT, 5% glycerol; conditions: protein: recombinant; tags: N-terminal His6-YFP, C-terminal StrepII; blunt
T3 sequence: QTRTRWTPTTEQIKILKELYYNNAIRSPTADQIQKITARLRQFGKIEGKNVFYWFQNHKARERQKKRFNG

YFP-WUS-HD T35R = target: T4, YFP-WUS-HD T35R (Arabidopsis thaliana, UniProt Q9SB92 34-103, T35R); assay: as above; conditions: protein: recombinant; tags: N-terminal His6-YFP, C-terminal StrepII; blunt
T4 sequence: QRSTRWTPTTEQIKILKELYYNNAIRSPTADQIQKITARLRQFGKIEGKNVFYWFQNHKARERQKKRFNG

YFP-WUS-HD R94K = target: T5, YFP-WUS-HD R94K (Arabidopsis thaliana, UniProt Q9SB92 34-103, R94K); assay: as above; conditions: protein: recombinant; tags: N-terminal His6-YFP, C-terminal StrepII; blunt
T5 sequence: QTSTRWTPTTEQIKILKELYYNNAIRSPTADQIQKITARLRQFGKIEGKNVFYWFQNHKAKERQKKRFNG

WUS-HD [1] = target: T6, WUS-HD (Arabidopsis thaliana, UniProt Q9SB92 34-103); assay: EMSA; MST: 20 mM Tris-HCl pH 8.0, 75 mM NaCl, 10 mM MgCl2, 0.05% Tween-20, 20 C, 50 nM YFP-WUS; ITC: same without Tween, 20 C; EMSA: 10 mM Tris-HCl pH 8.0, 75 mM NaCl, 50 ug/ml poly(dI-dC), 1 mM EDTA, 1 mM DTT, 5% glycerol; conditions: protein: recombinant; tags: none after TEV cleavage (from His6-MBP); label: Cy5; blunt
T6 sequence: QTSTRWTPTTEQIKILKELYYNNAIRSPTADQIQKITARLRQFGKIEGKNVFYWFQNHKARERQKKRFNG

WUS-HD [2] = target: T6, WUS-HD; assay: EMSA; shift slightly modified; MST: 20 mM Tris-HCl pH 8.0, 75 mM NaCl, 10 mM MgCl2, 0.05% Tween-20, 20 C, 50 nM YFP-WUS; ITC: same without Tween, 20 C; EMSA: 10 mM Tris-HCl pH 8.0, 75 mM NaCl, 50 ug/ml poly(dI-dC), 1 mM EDTA, 1 mM DTT, 5% glycerol; conditions: protein: recombinant; tags: none after TEV cleavage (from His6-MBP); label: Cy5; blunt
YFP-WUS-HD I66A = target: T7, YFP-WUS-HD I66A (Arabidopsis thaliana, UniProt Q9SB92 34-103, I66A); assay: MST; MST: 20 mM Tris-HCl pH 8.0, 75 mM NaCl, 10 mM MgCl2, 0.05% Tween-20, 20 C, 50 nM YFP-WUS; ITC: same without Tween, 20 C; EMSA: 10 mM Tris-HCl pH 8.0, 75 mM NaCl, 50 ug/ml poly(dI-dC), 1 mM EDTA, 1 mM DTT, 5% glycerol; conditions: protein: recombinant; tags: N-terminal His6-YFP, C-terminal StrepII; blunt
T7 sequence: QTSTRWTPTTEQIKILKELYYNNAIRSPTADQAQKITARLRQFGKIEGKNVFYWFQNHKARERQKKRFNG

YFP-WUS-HD F101A = target: T8, YFP-WUS-HD F101A (Arabidopsis thaliana, UniProt Q9SB92 34-103, F101A); assay: as above; conditions: protein: recombinant; tags: N-terminal His6-YFP, C-terminal StrepII; blunt
T8 sequence: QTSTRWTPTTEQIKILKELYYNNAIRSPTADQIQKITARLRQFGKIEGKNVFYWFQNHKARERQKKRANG

YFP-WUS-HD F85A = target: T9, YFP-WUS-HD F85A (Arabidopsis thaliana, UniProt Q9SB92 34-103, F85A); assay: as above; conditions: protein: recombinant; tags: N-terminal His6-YFP, C-terminal StrepII; blunt
T9 sequence: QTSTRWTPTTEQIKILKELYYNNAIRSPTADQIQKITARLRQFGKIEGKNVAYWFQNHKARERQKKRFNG

WUS-HD [3] = target: T6, WUS-HD; assay: ITC; first binding event (Kd,1), sequential model, 2:1; MST: 20 mM Tris-HCl pH 8.0, 75 mM NaCl, 10 mM MgCl2, 0.05% Tween-20, 20 C, 50 nM YFP-WUS; ITC: same without Tween, 20 C; EMSA: 10 mM Tris-HCl pH 8.0, 75 mM NaCl, 50 ug/ml poly(dI-dC), 1 mM EDTA, 1 mM DTT, 5% glycerol; conditions: protein: recombinant; tags: none after TEV cleavage (from His6-MBP); blunt
WUS-HD [4] = target: T6, WUS-HD; assay: crystal structure; 2.8 A; two or three HD per DNA; MST: 20 mM Tris-HCl pH 8.0, 75 mM NaCl, 10 mM MgCl2, 0.05% Tween-20, 20 C, 50 nM YFP-WUS; ITC: same without Tween, 20 C; EMSA: 10 mM Tris-HCl pH 8.0, 75 mM NaCl, 50 ug/ml poly(dI-dC), 1 mM EDTA, 1 mM DTT, 5% glycerol; conditions: protein: recombinant; tags: none after TEV cleavage (from His6-MBP); blunt

B1: TGAA Head-to-Head (dsDNA)
DNA 1: CGCCTTCATGAACGCC
DNA 2: GGCGTTCATGAAGGCG
B1 gave a Kd (YFP-WUS-HD) of 3170 ± 350 nM.

B2: f_G-Box (dsDNA)
DNA 1: CATCGTCGTCACGTGATGGG
DNA 2: CCCATCACGTGACGACGATG
In the case of B2, the Kd (MBP-WUS-FL) is reported as 1680 ± 300 nM.

B3: TGAA 16-bp (dsDNA)
DNA 1: AGTGTATGAATGAACG
DNA 2: CGTTCATTCATACACT
For B3, the Kd (YFP-WUS-HD S36R) was 320 ± 30 nM, the Kd (YFP-WUS-HD T35R) was 540 ± 70 nM and the Kd (YFP-WUS-HD R94K) was 11000 ± 1620 nM. It also gave a Kd (YFP-WUS-HD) of 270 ± 30 nM.

B4: f_TAAT T12C (dsDNA)
DNA 1: GTGTTAATGGGCTGTG
DNA 2: CACAGCCCATTAACAC
B4: binds (WUS-HD [1]).

B5: 3xTGAA 1xSpacing (dsDNA)
DNA 1: CTGAACTGAACTGAAC
DNA 2: GTTCAGTTCAGTTCAG
B5 showed a Kd (YFP-WUS-HD) of 840 ± 120 nM.

B6: f_TAAT T12C,T15C (dsDNA)
DNA 1: GTGTTAATGGGCTGCG
DNA 2: CGCAGCCCATTAACAC
B6: binds (WUS-HD [2]).

B7: 1xTGAA (dsDNA)
DNA 1: CGCCGGTGAAGCCGCC
DNA 2: GGCGGCTTCACCGGCG
In the case of B7, the Kd (YFP-WUS-HD) is reported as 10500 ± 2300 nM.

B8: 3xTGAA (dsDNA)
DNA 1: CGTGAATGAATGAACC
DNA 2: GGTTCATTCATTCACG
B8 showed a Kd (YFP-WUS-HD) of 60 ± 10 nM.

B9: 2xTGAA 4xSpacing (dsDNA)
DNA 1: CGTGAAGCGCTGAACC
DNA 2: GGTTCAGCGCTTCACG
With B9 the Kd (YFP-WUS-HD) was 3580 ± 440 nM.

B10: G-Box 16-bp (dsDNA)
DNA 1: GTCGTCACGTGATGGG
DNA 2: CCCATCACGTGACGAC
B10 was tested, and the Kd (YFP-WUS-HD) was 3780 ± 420 nM.

B11: 3xTGAT (dsDNA)
DNA 1: CGTGATTGATTGATCC
DNA 2: GGATCAATCAATCACG
In the case of B11, the Kd (YFP-WUS-HD) is reported as 120 ± 10 nM.

B12: TGAA Tail-to-Tail (dsDNA)
DNA 1: CGCCTGAATTCACGCC
DNA 2: GGCGTGAATTCAGGCG
Binder B12 has a Kd (YFP-WUS-HD) of 1900 ± 200 nM.

B13: 3xTGAG (dsDNA)
DNA 1: CGTGAGTGAGTGAGCC
DNA 2: GGCTCACTCACTCACG
For B13, the Kd (YFP-WUS-HD) was 1420 ± 170 nM.

B14: 2xTGAA 1xSpacing (dsDNA)
DNA 1: CGCTGAACTGAACGCC
DNA 2: GGCGTTCAGTTCAGCG
For B14, the Kd (YFP-WUS-HD) was 2210 ± 250 nM.

B15: 2xTGAA (dsDNA)
DNA 1: CGCCTGAATGAACGCC
DNA 2: GGCGTTCATTCAGGCG
B15 was tested, and the Kd (YFP-WUS-HD I66A) was 8200 ± 840 nM, the Kd (YFP-WUS-HD F101A) was 800 ± 120 nM and the Kd (YFP-WUS-HD) was 300 ± 40 nM. For the same binder, the Kd (YFP-WUS-HD F85A) was 6810 ± 870 nM and the Kd (WUS-HD [3]) was 1240 ± 140 nM.

B16: 3xTGAC (dsDNA)
DNA 1: CGTGACTGACTGACCC
DNA 2: GGGTCAGTCAGTCACG
With B16 the Kd (YFP-WUS-HD) was 390 ± 50 nM.

B17: TAAT 16-bp (dsDNA)
DNA 1: GTGTTAATGGGTTGTG
DNA 2: CACAACCCATTAACAC
With B17 the Kd (YFP-WUS-HD S36R) was 1670 ± 170 nM, the Kd (YFP-WUS-HD T35R) was 1670 ± 200 nM and the Kd (YFP-WUS-HD R94K) was 4590 ± 580 nM. B17: binds (WUS-HD [4]).

B18: f_TAAT wt 16-bp (dsDNA)
DNA 1: GTGTTAATGGGTTGTG
DNA 2: CACAACCCATTAACAC
B18: binds (WUS-HD [1]).
